In PMC9774250:

What was measured:
[1] = test system: apo-YgaV (His-tagged) (Escherichia coli (WT genomic DNA; BW25113?)); assay: EMSA; settings: EMSA: 50 nM probe, 25 mM Tris-HCl pH 8.0, 100 mM NaCl, 2 mM MgCl2, 6% glycerol, 50 mg/mL heparin (so in the source), room temperature 30 min, footprint: 100 nM DNA …
[2] = test system: heme-YgaV (His-tagged, hemin-reconstituted) (Escherichia coli (WT genomic DNA; BW25113?)); assay: EMSA; settings: heme; 10 mM Na2S (oxidized); EMSA: 50 nM probe, 25 mM Tris-HCl pH 8.0, 100 mM NaCl, 2 mM MgCl2, 6% glycerol, 50 mg/mL heparin (so in the source), room temperature 30 min; footprint: 100 nM DNA …

| Substance | binding signal ([1]; 1 mM DTT (reduced), scale: fold higher YgaV concentration for shift than ygaV promoter) | binding signal (fold higher EC50 than DTT-reduced) ([1]; 10 mM Na2S (oxidized)) | binding signal (fold higher EC50 than DTT-reduced) [2] |
| --- | --- | --- | --- |
| katG promoter | 20 |  |  |
| ygaVP promoter |  | 5 | 5 |
